In test [1] the target is S. mutans CLC^F homologue encoded by ORF 1290 (SMU.1290) (Streptococcus mutans UA159). Put plainly: cross-linking.
The target of test [2] is S. mutans CLC^F F-/H+ antiporter encoded by ORF 1289 (SMU.1289) (Streptococcus mutans UA159). Description: cross-linking.

On to “S. mutans CLC^F homologue encoded by ORF 1290 (SMU.1290) (natural protein)”, for which the stoichiometry N in test [1] is 2. In test [2], “S. mutans CLC^F F-/H+ antiporter encoded by ORF 1289 (SMU.1289) (natural protein)” yielded a stoichiometry N of 2.

The record behind these values is article PMC10827179.
